We go through three substances from PMC11413682.

Usually Kd stands for the free concentration of one partner at which half of the binding sites on the other are occupied at equilibrium, for simple one-to-one binding.

Test [1] deals with CUL2^ZYG11B (residues 490–728) (human) (UniProt Q9C0D3). Nature of the test: ITC; SNX11-degron peptide titrated into CUL2^ZYG11B that was pre-incubated with the ORF10 peptide (pre-formed ZYG11B/ORF10 N5 complex).
The target is the same in test [2]. Nature of the test: ITC; MicroCal iTC200; peptides (0.5–1 mmol/L) in the syringe, CUL2^ZYG11B(490–728) (0.03 mmol/L) in the cell; 18 injections of 2 μL; repeated 3 times. On the technique in general: ITC needs no label: the signal is the heat of the interaction.

Chain of CUL2^ZYG11B (residues 490–728) (human) (Q9C0D3 490-728): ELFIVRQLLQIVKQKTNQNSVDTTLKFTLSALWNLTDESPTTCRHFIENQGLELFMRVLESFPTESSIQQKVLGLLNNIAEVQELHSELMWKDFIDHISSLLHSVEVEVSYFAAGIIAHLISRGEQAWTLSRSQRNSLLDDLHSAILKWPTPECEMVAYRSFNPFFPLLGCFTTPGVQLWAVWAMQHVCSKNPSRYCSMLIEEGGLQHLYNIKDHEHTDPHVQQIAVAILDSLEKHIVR

For the substance SNX11-degron peptide, the fold lower affinity for CUL2^ZYG11B pre-bound to the ORF10 peptide than for CUL2^ZYG11B alone in test [1] came out at 13 fold.

With SARS-CoV-2 ORF10 N3 peptide, the equilibrium dissociation constant (Kd) in test [2] stood at 14.5 µM.

For SARS-CoV-2 ORF10 N4 peptide, the Kd in test [2] is 5.18 µM.
